Experiment: soluble on expression in E. coli; label from the status in PepcDB or PDB records

Sequence | soluble on expression in E. coli
MDRLKAMQVFVEVADRGSLSAAAMHLGMSRAMVSRYLAELEAWVGVRLLHRTTRRLSLTPAGSETLPRCRRMLEMVGDMREAVAAPDAEPRGLLRVTAAMSFGGAQLAEAVAEFVRRHPAASIDLLLVDRAVNLVEERVDLAVRITNDLDPNLIGRRLADCRSVVCAAPQYLQQHGAPARAEDLSLHNCLTHSYFGRSLWRFERAGEPVEVPVGGNITANETDVLMRAALAGAGIVMLPTYLAAGQIAAGTLRPLLPDCAPPVLGIHGVYVSRKQMPLILRTMLDFLAERFNPAPWDAALEGR | not soluble
MLVLYLVFKKFLFKPVMKVINAREDMIKQQFDDAKKSQEEADALKASYDEKLESAKTEADEIIVNARNRAQEEHEAALEKTRKETEVMLEKAKADIATEKEKATEAAQADIARLALIAARKIVKTGDAHDAGSSK | not soluble
RSDTTIVATVNPRDKQTTLVSLARDTYVDIPGQGKQDKLNHAYAFGGASLAMDTVENYLNIPINHYVSINMAGLKELVNAVGGIEVNNNLTFSQDGYDFTIGKISLDGEQALSYSRMRYEDPNGDYGRQERQRKVIEGIVQKVLS | not soluble
VADEYKWALASIYETDDEWEAAFEDVQAELDALNDYEGRLTEDGETLLAALELRDAVYRDAKTVSAYASMRSDEDTRDQEYQALQARGASLMTDVSSATSFFDPELQACTREQLQSMIEETPELAAYEHYFDDVLRMKPHTRSAEVEGLLSELGEVFGAPSDAYNMLTDADLEFPTVEDPAGDAVEISQSN | soluble
MGHHHHHHSHMSVSVHENRKSRASSGSINIYLFHKSSYADSVLTHLNLLRQQRLFTDVLLHAGNRTFPCHRAVLAACSRYFEAMFSGGLKESQDSEVNFDNSIHPEVLELLLDYAYSSRVIINEENAESLLEAGDMLEFQDIRDACAEFLEKNLHP | not soluble
MDDFATSSRVFEDDNDAFDFNPLEDFAFDDIDDDDDIVSGILDDGPYSIPNADNKPKFKSVSFDNAETPEERIETLFNQMPTQDDLLLGILDASQTPIFTDDLEQKVEELKQHHHSVYSPMSYCRLLERAGAIEQTNNEGLPLKEVEVEPDKVVVEGVEYWKVAAAPDVYWTATPAGLAHFQAYQPMELLRQMVQNEPQYEEIFRMVLSATAADGGESVKNIDDLVSDDPILQSPRRYAMYFIDKLERAGGIQWRGAWVAIQAGKDFLAELNA | not soluble
MGSDKIHHHHHHMAKAPKMAFVCDDCGLDYPRWQGQCRCGAWNSLVEMKLSASKSSTSRSSVLGYAGAVGGGSKKLSEVESEDAEKRLTEIGELDRVLSGGLTTGSVNIISGDPGAGKTTLLSDLVARMSQSMASLYCTAEESLSQFKNRVNRLKLNYNEDNLFLLSETSVEAIIEELEAKQIKFAVIDSIQAVVTDAANGSPGSPSQVKTAAQAFTQYCKKNNVTMFIIAHVNKNNEIAGPQTLVHIVDSLLHIDTNDGQIRTLRANKNRFGDVDTVGIFRMSERGMISVDNPSEIFLSGSTTESPGSTITCIRKGNRNLLLEIQCLTTETESEFPQRVCVGLNMNRIKMLTGILRKHTKTKIFHDTFFNIVGGLKIDESETCIDLALVTALLSSLNDFVVPRTTCIMGELSLNGDVRPIDSGVPRVKEAAQHGFTEIFIPFRNYHKTMEGLGAKIIPVKTIHELLELIN | not soluble
MPAGHEDIGLPQDDEAFMRYRERRIQELCGKVEEVVSEKELIEKTKSLRMIVHFYKPEFKRCKTMDKGLEEVKDCFPGIRFYRVNAEICPVVARKLEIRVLPFLGFFKDGYFVDQVVGFEKLGGDSVEPEVLKKRILDSNIFKPISSI | not soluble
MRVAVTGTPGTGKTTATGRLDTALDVAHLNDLVGTEGLYDGVDADRGSKIVDVDAVRDHFAGREDVLVESHLAHRLDDLDAVVVLRCAPETLATRLQDRGDSPEKAAENADSEALAIILSEAVRGHGADAVYEIDTTDRSPDAVAAAIQAVLDGDREPSAGTVDYTDYV | not soluble
MHNSTGRYVLGMEVMTPTGMNLDIATSVANADLARFDQVVGEDGIERFTFAKIEYTKESDLFEKTCELTANLLDSLLTQLPRS | not soluble
SEEVEAEEPQEFSHRQRLKAAVHYTVGCLCQEVTLNKQVNFSKQTIAAISEVTFRQCENFAKDLEMFARWVEKLAV | soluble
MKYQVKQVAEISGVSIRTLHHYDNIELLNPSALTDAGYRLYSDADLERLQQILFFKEIGFRLDEIKEMLDHPNFDRKAALQSQKEILMKKKQRMDEMIQTIDRTLLSVD | soluble
MADKKAPAAGWPVANGEYVVGNPESCVAVITLGSHGLDQAAIDAGAAISGPCHTENLGIEKVVANYISNPNIRFMVIAGSEVQGHITGQCIKALYENGIGDDGGIIGAKGAIPFMENVGKEPVGRLQTQVVECIDLIDVEDKGKIADAIKNCISKDPGAFEEDPMVIELEGGAAAAGDESTSIKPTSPEMALLEARMRIVSEKMNEAAMIAKFNSGYYNGK | not soluble
STGNAGEWCLMESDPGVFTELIKGFGCRGAQVEEIWSLEPENFEKLKPVHGLIFLFKWQPGEEPAGSVVQDSRLDTIFFAKQVINNACATQAIVSVLLNCTHQDVHLGETLSEFKEFSQSFDAAMKGLALSNSDVIRQVHNSFARQQMFEFDTKTSAKEEDAFHFVSYVPVNGRLYELDGLREGPIDLGACNQDDWISAVRPVIEKRIQKYSEGEIRFNLMAIVSDRKMIYEQKIAELQRQLAEEPMDTDQGNSMLSAIQSEVAKNQMLIEEEVQKLKRYKIENIRRKHNYLPFIMELLKTLAEHQQLIPLVEKAKEKQNAKKAQETK | soluble
MGMPEEALKIYQELLEIEKELGNEREIALTLANIAVVKDELGEADEAIKLMSEAKDIFEKINDTKNYHIALIDLAHFYYELGEYEKAMQIIEEVLRNPLDDEIEVHGRLVESEIHSALENYKKAALSLRNALLRSGDDEYLFETAFEAVLEFIEELYNEEKLEHHHHHH | not soluble
VVRVGRRSATFYPPEGAAALIGDFTDWERNPIPLEGPLTLEFPEGAYVEYAFLDREGRPFPDPDNPEKAENPWWSYPRAIKLPGFRYEAPPAPKEEPKVHRHRLGERRFYVAETGPSPKATVVAQDGVAFYRTAGLHKVARALFEAGEIPPVRLVFVEPIDRNTEYRFNEAYEAEFHRVLEEVEGAYGPLNELVLVGASLGGLFSLWQAWRHPERFPKVLALSPALKAHPGGKDAYRDEEWLLARYAEARRLPRVYVEVGLLEWLLGPNRRLAALFADKKVPHAYRERPSGHNWVTWKQALAPGLRYLLGPQ | soluble
MGRKKKKVDKPWCWYCNREFDDEKILIQHQKAKHFKCHICHKKLFSGPGLSIHCMQVHKETIDKIPAAVHGRDNIHVEIYGMQGIPSGAYRGAADEEPDEKRSRMDNGPPMPTPMPFPQHFPFPGMPPMPSGPPPPSMAYGMPPMPSGMMPPRGMPGAYPPPRGYPPAPAPGVYMPPPGMPGAYPPPRMPIGHGPPGGPPMPGPPQRSRFDQPDGGDRWGPPMRGVPRTPPYENEHEHQDYQAPDDYNQGGYDDRFREGDRGGPPGGSRFDQVKAELKEEIVEPNNGPPTTSSGAAAASAAAVVASKLGSRTRIVYPDDHSLSLEERRVKMLFEKRSNPYH | soluble
MIKRILKIWFIIGMYELSKYLTNELIIYLQSEDDIDTAPKDFAILDDQIDLNRSFRRQIENDIAKAFEDAFNSSEKEDNLEHHHHHH | not soluble
MQMNTQREQLIHIWLTSVLNSDEFKIQFLAGDASFRRYARVEYKNNTYMLMDAPPEKEDCVPFVHIDEFFDRHGVRVPHILAKDLVQGFLLLEDFGDVLLSTLLNAQTVNHYYLQAFAQLIHLQSIDGQDQFPAYTFEKLMAEMHLLTEWMLPSLDIQPSSAEQDIIQQTFELLANTALNQPQVIVHRDFHSRNLMKIQGEEELGVIDFQDAVIGADTYDLISITRDAYVQWGEDQVITWFEMFYDLLPDTSKHHRDFEQFKRDADFMAIQRHIKILGIFVRLFERDGKSSYLKDLPRVMWYLLQESRPYAELKPFVEFIQYQVMPKFEQKYGGYEVVKK | not soluble
VIEPARGLGDGNIERKIRGLLDSWMTWNHSFQGSCMFLDAWNDAADKNCPLQAALRKAIDTWLSYLEIQIAKGKENQEFISDLDTRQATFDLYGQYLSAHVFYSIKGEEESLRLFWQGIDNLLARWRG | not soluble
MKFFDREREINEILHILNREPDDIYFIYGPLNSGKTALIKHIIENKLSDDYKVFYINFRTYLISEKREFIEAIFTTKKDDFFEKIKDKDEVLNLITKGVRILTGIPIPEVEFDKLFEEKINDAFQYLNSLLLEVKKSGKKPILIFDELQMIKDVVLNTENQRFSAFPSLRFGNGQKYLLKELFQFLVSLTKEQHLCHVFCLSSDSLFIEYVYSTGELEGRAKYLLVDDFDKETALKFMDFLAVENNINLTNEDKELIYSYVGGKPKDIKYVVEESKFKDLREILEFMLKDAVQKLDMFLDMLNYSKPKVDVGDEVIEIKKDNVIEALKLFKDEYEVSKKHIPVPVYTYLIKRNILFLNPIEGILKPQSYLVWNAIKRLL | not soluble
MEHIRRVAELAREIARNNGLDPERAYLAGLLHDAARDLPEEELRRLAPPENEVEEAHPLALHGRAARALAASWGVRDEEVLEAIEGHVYGVDPENGIGMALYVADVSEPGRGVNEEIRELALAGRLKEAYRLAVRNKVHYLKAKKIPIHPRTLEVYHSL | soluble
MSLTVVQLTDIHFQWPYPYVTKKKLASIVEKVNEINPDFIFLTGDFISRYRTYNISKYNTETIAFYLGQLRAKRGIYAIQGNNDRCAGDMLLKAFKENGVRMLMNEGIIDDDISITGILSSKNIDICNTWLNQTKIPDAPLKILLSHQPDTALVTYPFFDLQFSGHTHGGQCIAPFGIGPILHPKMGHKFIVGVYKIGNMILHVSTGIGISPLPKPLVRFNNIAEVSVIRVVPEEGHHHHHH | not soluble
MGSDKIHHHHHHKDAAYPRAEAQTLDLAQKAIAIRSVRGEGNRTIDVANLFRDALLKGGWQVGDIEVTPVDDTAYIIATWKGSDPSLKPVVISGHMDVVEAKREDWERDPFVPVVENGILYGRGASDMKFDGALALSTLIELRRQGFKPKRTIVIEFSGDEETTMKTSAIIAEKLKNAELVINVDGGGGTLDEATGKPLYWTWQGAEKTYADYRLEVTNPGGHSSAPRPDNAIVQLSQALVKVGAYRFKAEQNDITRGYFEKAAPFTDRPEIAAAMRAFAANPADEKALATLRADPSMVGKVGTTCVPTMLGGGHAENALPQRAFANINCRIFPGHTKEAIMAELAQVVGDPAVKISDVTEGSVASPASPLRPDLMKAVTRAMTKAYPKVPLIPSQASGASDSMWFRALGVPSYGLSPSFSKDSEDFSHGLNERTRLSNIRPGITYYLTLITDLTK | not soluble
MNTVPFTSAPIEVTIGIDQYSFNVKENQPFHGIKDIPIGHVHVIHFQHADNSSMRYGYWFDCRMGNFYIQYDPKDGLYKMMEERDGAKFENIVHNFKERQMMVSYPKIDEDDTWYNLTEFVQMDKIRKIVRKDENQFSYVDSSMTTVQENELLKSSLQKAGSKMEAKNEDDPAHSLNYTVINFKSREAIRPGHEMEDFLDKSYYLNTVMLQGIFKNSSNYFGELQFAFLNAMFFGNYGSSLQWHAMIELICSSATVPKHMLDKLDEILYYQIKTLPEQYSDILLNERVWNICLYSSFQKNSLHNTEKIMENKYPELLGKDNEDDALIYGISDEERDDEDDEHNPTIVGGLYYQRP | soluble

— the DeepSol protein solubility set
